Measured values published in the DeepSol protein solubility set.

Test: soluble on expression in E. coli; label from the status in PepcDB or PDB records

Sequence	soluble on expression in E. coli
MAHHHHHHMEGQSELVERVVRMQLTSPDFAEYCVAHVTDPKHRFLFSRNEDEAERRLYVRLLEGRGHQKRAETPAVVAPAFAPERTSSLMTHGGTAVLWMSLLDYFSSTPGVRGPHMPHMFRTEADLTAFVDMLDGAQREHVSLEDVVQFMLRRLPMTEVFLYVLCYMCDVRIHEVRRETRRRSSGACVTDSADGASDEKKLQAAGTLLFIANMLLLQHDALERPLRYLSVFEFYMQRMVEALAGTVPKNSPVDTFLRETVMVWSEGHVFGEEALDCMKRAIGCSLG	not soluble
RSEYVAPRSVWEARLAQVWEQVLNVPQVGALDDFFALGGHSLRAMRVLSSMHNEYQVDIPLRILFEKPTIQELAAFIEETAKGNVFSIEPVQKQAYYPVSSAQKRMYILDQFEGVGISYNMPSTMLIEGKLERTRVEAAFQRLIARHESLRTSFAVVNGEPVQNIHEDVPFALAYSEVTEEEARELVSSLVQPFDLEVAPLIRVSLLKIGEDRYVLFTDMHHSISDGVSSGILLAEWVQLYQGDVLPELRIQYKDFAVWQQEFSQSAAFHKQEAYWLQTFADDIPVLNLPTDFTRPSTQSFAGDQCTIGAGKALTEGLHQLAQATGTTLYMVLLAAYNVLLAKYAGQEDIIVGTPITGRSHADLEPIVGMFVNTLAMRNKPQREKTFSEFLQEVKQNALDAYGHQDYPFEELVEKLAIARDLSRNPLFDTVFTFQNSTEEVMTLPECTLAPFMTDETGQHAKFDLTFSATEEREEMTIGVEYSTSLFTRETMERFSRHFLTIAASIVQNPHIRLGEIDML	soluble
FMFKHIIARTPARSLVDGLTSSHLGKPDYAKALEQHNAYIRALQTCDVDITLLPPDERFPDSVFVEDPVLCTSRCAIITRPGAESRRGETEIIEETVQRFYPGKVERIEAPGTVEAGDIMMVGDHFYIGESARTNAEGARQMIAILEKHGLSGSVVRLEKVLHLKTGLAYLEHNNLLAAGEFVSKPEFQDFNIIEIPEEESYAANCIWVNERVIMPAGYPRTREKIARLGYRVIEVDTSEYRKIDGGVSSMSLRF	soluble
MKYDWILFDADETLFHFDAFKGLQLMFSRKGVDFTEQDFAHYQTVNKPLWVDYQDGKVTADELKHKRFTEWAEKLNTTTADLNSAFLEAMADICS	not soluble
EKKYFEIHGVPSIIWGNPSSKLYIYIHGQCGNKEEAEAFANIAVPHECQVLSVDLPEHGERKREKNSFNPWHVVPELVSIMEYAKCHWNQISLYANSIGAWFSMLSFEKENLRECIFVSPILDMQQLISNMMLWANVSEEQLKHELIIPTSFGHTLSWEYLQYVKQHPITQWNVPTKILYGKHDELTEIGVVEKFVEKFNCNLTIIENGKHWFNTPQELNSLYEWLNTLVK	not soluble
MGSDKIHHHHHHMKNLLVVLLSLVSVLSFSVSLNDVLQTALASSTDYQIAQISLESATMDYEKAKLEATNKRSELSAELSYYNNLQSYRNSLKSAYQDVLGRIFNLLTADLSYEIAQLNFENAQEDYKTSQELFKKNLISENDLKDSELTLEEASNNLLSAQKDLEEAQKDYEEIFSVEVSEIELPLIDYQNLVGEDEYLDNLSSVKIAELNMKIAEYDLNNLSASASKYEQKKAELNYKKSKMNYDEALKEAKDSYKSTLDSLEIAFLNLKVLKEKIELNENILKDYQERYEKGLISKKELNTQKINLLNIKKNYLNSLRSYYISIVNLLIDAGKEVSF	not soluble
MINLTNLASSLARVALSDSTKPTIDRAMNVVSHIAGKVALQVNSSLLEQKGRLNERQQKGLEVILDALLGKEPVTHVETHEGGGRFNLARAAFDVASVVWERDQSMRNVMSFLGINDSKGNLLFSLGKTLADAMARPEPENGKHNSEANYAFFSSNLKLNKLMNDIADQVINEIRQQNTDRVRRPTPGPSWRPESTQQQARPQTPPSARPQANSAPPPPKAQPDAGAQRPSTERPPKTTPTGASAKVDDSAPAKPPVKQLYEHLGLSDMTADLSAVKKAYKKAALKYHPDKNAGNVAEANERFKKISNAFRILSDPELRTKYDNGVIDENG	not soluble
SRFADAVLDQYIGSIHSLCKDQHGCRFLQKQLDILGSKAADAIFEETKDYTVELMTDSFGNYLIQKLLEEVTTEQRIVLTKISSPHFVEISLNPHGTRALQKLIECIKTDEEAQIVVDSLRPYTVQLSKDLNGNHVIQKCLQRLKPENFQFIFDAISDSCIDIATHRHGCCVLQRCLDHGTTEQCDNLCDKLLALVDKLTLDPFGNYVVQYIITKEAEKNKYDYTHKIVHLLKPRAIELSIHKFGSNVIEKILKTAIVSEPMILEILNNGGETGIQSLLNDSYGNYVLQTALDISHKQNDYLYKRLSEIVAPLLVGPIRNTPHGKRIIGMLHLDS	soluble
MHEWALADAIVRTVLDYAQREGASRVKAVRVVLGELQDVAEDIVKFAMEQLFAGTIAEGAEIEFVEEEAVFKCRNCNYEWKLKEVKDKFDERIKEDIHFIPEVVHAFLACPKCGSHDFEVVKGRGVYVAGIKIEKEGGS	soluble
MSKSLKKLVEESREKNQPEVDMSDRGISNMLDVNGLFTLSHITQLVLSHNKLTMVPPNIAELKNLEVLNFFNNQIEELPTQISSLQKLKHLNLGMNRLNTLPRGFGSLPALEVLDLTYNNLSENSLPGNFFYLTTLRALYLSDNDFEILPPDIGKLTKLQILSLRDNDLISLPKEIGELTQLKELHIQGNRLTVLPPELGNLDLTGQKQVFKAENNPWVTPIADQFQLGVSHVFEYIRSETYKYLYGRHMQANPEPPKKNNDKSKKISRKPLAAKNR	not soluble
GPGSMERAATQSQSIYSNANTNSSNVNTYGNTVSSYLSNNSPNAVMYGGGNSGNGGAPSSTSVATVYASPTQASPSQAIRQQAQGAAQQNMSQSQTSTSFNAYGGGAASGSGSGFFYSTPSAQAPGAQTMYSANPSAAAMFPMRGGSTSMTPAQPTPTQMLTPQANAAAAAAAVWTNAAANINAGSKLFVGQVPAVCTEDQLRPLFAQFGTLLEIKIMREPNGRSKGSAWVRYELEESAQRAITALNEKHVVPPQTNPLRVQFAAPSTNRIPQPLSALGSIMPPSAVMQPQPQPNYATAATYATPQGYAGTTTAYMQGQYATSPNLMAVRASPQQQAAVQSASGKIEYLRSNHPGSLIYSTASPTAVDAMQQQQQQQSPQQQQVVYTTGGQMRAGVMYTPDAFAMTNQMAAAPQQPHQWCS	soluble
MSNFSEGEIFIANIEKKSLECRENDEIVVLKICELCNIIYPIFNKIFGNGFVGDTLKKDLKNSSSQVQRAIEKFPEETKYVSMLYSYNINKYENMEKLKRDLDNGIISFLWMKRTLEFIITFLEKCYITCSETKLSICAQEAYNEVLKKYHGFITSKIVKLCLKLSPTKDILTKKLGFQTHQQASTVLQKCLSITKPLVRDISVTIEKFNCDFEEKI	not soluble
MYQEFFTFIPVDIEELDKAFGGGLIRGATISIMYDAFSLGWALGFEMVKNLIRRNSFGVIHNYNLPTIKLISRASFVGLNIQELAKRKEIMILDVFGSKYDVPPYADYVLQVPNPTPETLNPKIESVYENKIFQVAGDRRIVKLVYTLDGVATMFGEEVAIKLLNGELAWLAKMYGKRNVMTILLLNVDMVSKKFIAWTSGVSDIVITFQSLTEEREGELVERMTVIKSLNPEFEPTSYEFRVTATGTGSHALDFRKIENKRDK	soluble
SLFITDKRVKESATALNPSMFQGLYLQDQMLKDPTYLPIYGSSELSRLDEFHPSNYFQVNNEGFTPYLVGKGGSQSLIHSLNFAAHMDQLKGKKIVFIVSPQWFIKRGSDEQHFAPNYSALQGLDLAFNDQIDPEIKKKMMKRMLRFKAVQNDAILSELYKAMVNGQTWKVNALKPAAKVYYSMLEKKDLYYSTTESSGPKRYISQSVKDKSWSELNKLADQSGKRHSGSNDFHIDNPVYKKLKPKVPKLKGKNKGRSYAVSPEYGDFEMMLDILKDAGAEPMFVTIPVNGKWYDYTGFPKKGRTDYYKKVNKQIRAKGFQVADFSGHEYDPYFMKDTIHIGWKGWVYVDKAIDEFYKTGKVTSS	soluble
